# According to patent US20090011974A1, “Scavenger Receptor B1 (Cla-1) Targeting for the Treatment of Infection, Sepsis and Inflammation” (priority 2002, published 2009):
# Where “and” joins values, the source holds several entries; their conditions need not be identical. Equal entries are not always repeated. Entries after “also recorded” stand apart in the source; their conditions may differ. Where a SMILES comes first, the peptide text is derived from it.
# T1: CLA-1 (Homo sapiens, UniProt Q8WTV0)
# T1 construct: using the expression plasmid pTRE2 (Clontech, Pal Alto, Calif.), encoding a CLA-1 protein (pTRE2-CLA-1); expressed in transfected cells; host or cells: HeLa (Tet-off) cells (Clontech), stably co-transfected with pTRE2-CLA-1 and pTK-Hyg and selected with hygromycin
# T1 sequence (Q8WTV0 1-509 isoform Q8WTV0-2): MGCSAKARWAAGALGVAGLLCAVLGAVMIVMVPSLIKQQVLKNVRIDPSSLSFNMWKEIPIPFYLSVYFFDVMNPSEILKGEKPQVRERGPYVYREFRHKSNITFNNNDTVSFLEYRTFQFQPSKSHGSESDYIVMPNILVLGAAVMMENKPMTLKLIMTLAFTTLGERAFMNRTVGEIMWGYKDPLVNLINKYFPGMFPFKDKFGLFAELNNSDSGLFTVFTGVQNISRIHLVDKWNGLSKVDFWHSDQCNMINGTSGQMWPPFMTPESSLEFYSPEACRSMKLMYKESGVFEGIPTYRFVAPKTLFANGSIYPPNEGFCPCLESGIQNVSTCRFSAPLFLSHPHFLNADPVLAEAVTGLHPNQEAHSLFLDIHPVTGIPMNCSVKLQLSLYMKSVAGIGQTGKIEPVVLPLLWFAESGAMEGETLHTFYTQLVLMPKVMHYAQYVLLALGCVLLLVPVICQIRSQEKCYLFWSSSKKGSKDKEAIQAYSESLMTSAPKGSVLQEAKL
# T2: CLA-1 (CD36 and LIMPII Analogous-1), human scavenger receptor class B type I (human, UniProt Q8WTV0 1-552)
# T2 construct: whole, on cells; Target is CLA-1 on stably transfected HeLa cells, compared with mock-transfected HeLa cells, which carry a low endogenous level of CLA-1; also called SR-BI/CLA-1; human SR-BI
# T2 sequence (looked up): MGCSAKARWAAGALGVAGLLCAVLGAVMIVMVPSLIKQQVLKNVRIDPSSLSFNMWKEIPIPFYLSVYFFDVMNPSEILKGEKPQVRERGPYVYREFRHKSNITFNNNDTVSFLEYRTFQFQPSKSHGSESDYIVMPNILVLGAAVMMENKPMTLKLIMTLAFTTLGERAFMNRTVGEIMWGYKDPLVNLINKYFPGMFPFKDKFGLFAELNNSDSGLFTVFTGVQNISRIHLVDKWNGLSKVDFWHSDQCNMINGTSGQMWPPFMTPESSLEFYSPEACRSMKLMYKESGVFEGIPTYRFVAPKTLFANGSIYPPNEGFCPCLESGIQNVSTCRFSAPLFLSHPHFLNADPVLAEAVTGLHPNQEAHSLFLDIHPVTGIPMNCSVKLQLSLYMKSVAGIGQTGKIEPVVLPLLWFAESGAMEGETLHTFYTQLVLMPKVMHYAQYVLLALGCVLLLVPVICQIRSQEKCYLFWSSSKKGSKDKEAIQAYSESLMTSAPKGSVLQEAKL
# B1: Serum Amyloid A1 (StressGene) (ligand, UniProt P0DJI8 19-122, looked up)
# chain: RSFFSFLGEAFDGARDMWRAYSDMREANYIGSDKYFHARGNYDAAKRGPGGAWAAEVITDARENIQRFFGHGAEDSLADQAANEWGRSGKDPNHFRPAGLPEKY
# notes: also called SAA; lipid-free SAA
# Key:
# THP-1 cells = settings: 20 μg/ml
# Procedure: Assays for cytokines and lactate dehydrogenase (LD). Interleukins 6 and 8 (IL-6 and IL-8) and tumor-necrosis factor-α (TNF-α) are measured in culture supernatants of THP-1 cells using commercial ELISA kits (Biosource International, USA). LD activity was measured in the supernatants by a Hitachi 917 automated chemistry analyzer (Roche).
# CLA-1 [1] = target: T1, CLA-1; experiment: FACS analysis of Alexa 488-SAA and Alexa 488-HDL uptake in HeLa cells; type: cell-based; settings: CLA-1 overexpressing HeLa cells
# Procedure: Ligand-uptake experiments. Binding experiments are performed at 37° C. using concentrations between 1.25 and 30 μg/ml. All incubations are performed in DMEM containing 2 mg/ml BSA. After a 2-hr-incubation […], the cells are rinsed with ice-cold PBS and released by a 30-min incubation in EDTA containing Cell stripper (CellGro, USA). Cells are resuspended and added to an equal volume of 4% paraformaldehyde in PBS. Cell fluorescence is analyzed by FACS analyses.
# CLA-1 [2] = target: T1, CLA-1; experiment: Competition for Alexa 488-SAA uptake in CLA-1 overexpressing and mock transfected HeLa cells (FACS); type: binding; settings: mock transfected and CLA-1 overexpressing HeLa cells
# Procedure: Competition experiments. Cells are cultured for 24 hr in serum free DMEM before experiments. […] For KKB-1 anti-CLA-1 blocking experiments, cells are pre-incubated with KKB-1 rabbit anti-serum (non-immune rabbit serum as a negative control) at a dilution of 1:10 followed by ligand addition to a final concentration of 5 μg/ml and a 1-hour incubation. Cell fluorescence was analyzed by FACS analyses.
# [3] = target: T2, CLA-1 (CD36 and LIMPII Analogous-1), …; experiment: flow cytometry of Alexa-488 SAA uptake
Molecule,"toxic effect (LDH release, β-actin expression) (THP-1 cells)",concentration at which SAA uptake plateaus (CLA-1 [1]),competition with Alexa 488-SAA for CLA-1 (CLA-1 [2]),fold increase of uptake over mock transfected HeLa cells [3] [fold]
CC(C)C[C@H](NC(=O)[C@H](Cc1c[nH]c2ccccc12)NC(=O)[C@H](CC(=O)O)NC(=O)[C@@H]1CCCN1C(=O)[C@H](Cc1ccccc1)NC(=O)[C@H](C)NC(=O)[C@H](CCC(=O)O)NC(=O)[C@H](CCCCN)NC(=O)[C@H](CC(C)C)NC(=O)[C@H](CCCCN)NC(=O)[C@H](CCC(=O)O)NC(=O)[C@H](C)NC(=O)[C@@H](NC(=O)[C@H](CCCCN)NC(=O)[C@H](CC(=O)O)NC(=O)[C@H](Cc1ccc(O)cc1)NC(=O)[C@H](Cc1ccccc1)NC(=O)[C@H](C)NC(=O)[C@H](CCCCN)NC(=O)[C@H](CC(C)C)NC(=O)[C@H](Cc1c[nH]c2ccccc12)NC(=O)[C@@H](N)CC(=O)O)C(C)C)C(=O)N[C@@H](CCCCN)C(=O)N[C@@H](C)C(=O)N[C@@H](Cc1ccccc1)C(=O)N[C@@H](Cc1ccc(O)cc1)C(=O)N[C@@H](CC(=O)O)C(=O)N[C@@H](CCCCN)C(=O)N[C@H](C(=O)N[C@@H](C)C(=O)N[C@@H](CCC(=O)O)C(=O)N[C@@H](CCCCN)C(=O)N[C@@H](CC(C)C)C(=O)N[C@@H](CCCCN)C(=O)N[C@@H](CCC(=O)O)C(=O)N[C@@H](C)C(=O)N[C@@H](Cc1ccccc1)C(=O)O)C(C)C [Peptide L-37PA] (H-DWLKAFYDKVAEKLKEAFPDWLKAFYDKVAEKLKEAF-OH; N-terminus and C-terminus assumed),no apparent toxic effect,,,
B1,,2.5 µg/mL and 2.5 to 5 µg/mL,efficient competitor; also recorded: competed for CLA-1 binding with Alexa 488-SAA,> 5
